# In patent publication US20220042033A1, “COMPOSITION AND METHOD FOR CONFERRING AND/OR ENHANCING TOLERANCE AGAINST HERBICIDES BY USING VARIANTS OF PPO” (FarmHannong Co., Ltd., priority 2017, published 2022):
# Residue numbers refer to the chain shown, from its start. Numbers in names are those of the source.
# B1: F209A: ApPPO1 (SEQ ID NO: 1) variant (protein)
# chain: MPFTHLKPLNRLLGSPRARHPHVAPQAVSVTNTSTTRPGGRSSAPGIPGDAEYDVVIVGAGISGLTTAQALAKQYSDAVPRLLVTEARDCVGGNIITRRDGGYQWEEGPNSFQPSDAVLRAAVDAGVADRLVLGDPKAPRYVYWGGRLRATPSGPDVLTFDLLSLWGKLRAGLGAAGFKAPLPEREESVKEFVTRNLGEEVFQRLIEPACSGVYAGDPAKLSMKAAFGKVYDLEKGGGSIVGGVLALMKARKQKPPEPRPADLPPKPKGQTVGSFDKGLVTLPSAIAEELGDRVVTGWKLESIDRSGDRFQLTYDTPQGRKKVSARSVALTVPAYTAASLLESRFPKLGKALSSIYYPPVASVALSYPETAILPERLGSDGHLAGFGQLHPRTQGVTTLGTIYASSLFPGRVPEGKVLLLSYFGGATNTRVATMPHGEIVSQVDKDLRKMLIRSDAESPHTVNVTVWPRAIPQFNVGHTDLIQEAKDDLASQGWQGLHLGGNYVAGVALGKCMEAGYKQAAELASHVKSLAT
# modifications: Synthetic (Protoporphyrinogen IX oxidase (ApPPO1) of Auxenochlorella protothecoides)
# B2: F209A + Y422M: ApPPO1 (SEQ ID NO: 1) variant (protein)
# chain: B1 chain with Y422M
# modifications: Synthetic (Protoporphyrinogen IX oxidase (ApPPO1) of Auxenochlorella protothecoides)
# B3: L389T + Y422M: ApPPO1 (SEQ ID NO: 1) variant (protein)
# chain: B1 chain with A209F, L389T, Y422M
# modifications: Synthetic (Protoporphyrinogen IX oxidase (ApPPO1) of Auxenochlorella protothecoides)
# B4: I402T + Y422M: ApPPO1 (SEQ ID NO: 1) variant (protein)
# chain: B1 chain with A209F, I402T, Y422M
# modifications: Synthetic (Protoporphyrinogen IX oxidase (ApPPO1) of Auxenochlorella protothecoides)
# B5: F386V + Y422M: ApPPO1 (SEQ ID NO: 1) variant (protein)
# chain: B1 chain with A209F, F386V, Y422M
# modifications: Synthetic (Protoporphyrinogen IX oxidase (ApPPO1) of Auxenochlorella protothecoides)
# B6: Y422M: ApPPO1 (SEQ ID NO: 1) variant (protein)
# chain: B1 chain with A209F, Y422M
# modifications: Synthetic (Protoporphyrinogen IX oxidase (ApPPO1) of Auxenochlorella protothecoides)
# B7: V360M + Y422M: ApPPO1 (SEQ ID NO: 1) variant (protein)
# chain: B1 chain with A209F, V360M, Y422M
# modifications: Synthetic (Protoporphyrinogen IX oxidase (ApPPO1) of Auxenochlorella protothecoides)
# B8: L389T: ApPPO1 (SEQ ID NO: 1) variant (protein)
# chain: B1 chain with A209F, L389T
# modifications: Synthetic (Protoporphyrinogen IX oxidase (ApPPO1) of Auxenochlorella protothecoides)
# B9: Y422T: ApPPO1 (SEQ ID NO: 1) variant (protein)
# chain: B1 chain with A209F, Y422T
# modifications: Synthetic (Protoporphyrinogen IX oxidase (ApPPO1) of Auxenochlorella protothecoides)
# B10: A215C: ApPPO1 (SEQ ID NO: 1) variant (protein)
# chain: B1 chain with A209F, A215C
# modifications: Synthetic (Protoporphyrinogen IX oxidase (ApPPO1) of Auxenochlorella protothecoides)
# B11: F386V: ApPPO1 (SEQ ID NO: 1) variant (protein)
# chain: B1 chain with A209F, F386V
# modifications: Synthetic (Protoporphyrinogen IX oxidase (ApPPO1) of Auxenochlorella protothecoides)
# B12: V360M: ApPPO1 (SEQ ID NO: 1) variant (protein)
# chain: B1 chain with A209F, V360M
# modifications: Synthetic (Protoporphyrinogen IX oxidase (ApPPO1) of Auxenochlorella protothecoides)
# B13: V213C: ApPPO1 (SEQ ID NO: 1) variant (protein)
# chain: B1 chain with A209F, V213C
# modifications: Synthetic (Protoporphyrinogen IX oxidase (ApPPO1) of Auxenochlorella protothecoides)
# B14: S362V + Y422I: ApPPO1 (SEQ ID NO: 1) variant (protein)
# chain: B1 chain with A209F, S362V, Y422I
# modifications: Synthetic (Protoporphyrinogen IX oxidase (ApPPO1) of Auxenochlorella protothecoides)
# B15: R140A: ApPPO1 (SEQ ID NO: 1) variant (protein)
# chain: B1 chain with R140A, A209F
# modifications: Synthetic (Protoporphyrinogen IX oxidase (ApPPO1) of Auxenochlorella protothecoides)
# B16: V360I + Y422I: ApPPO1 (SEQ ID NO: 1) variant (protein)
# chain: B1 chain with A209F, V360I, Y422I
# modifications: Synthetic (Protoporphyrinogen IX oxidase (ApPPO1) of Auxenochlorella protothecoides)
# B17: I402T: ApPPO1 (SEQ ID NO: 1) variant (protein)
# chain: B1 chain with A209F, I402T
# modifications: Synthetic (Protoporphyrinogen IX oxidase (ApPPO1) of Auxenochlorella protothecoides)
# B18: Y422I: ApPPO1 (SEQ ID NO: 1) variant (protein)
# chain: B1 chain with A209F, Y422I
# modifications: Synthetic (Protoporphyrinogen IX oxidase (ApPPO1) of Auxenochlorella protothecoides)
# Test system: ApPPO1
# Test: PPO enzyme activity of purified MBP-fused ApPPO1 wild type and variants
# Assay type: biochemical, Auxenochlorella protothecoides
# Conditions: PPO enzyme activity relative to ApPPO1 wild type; MBP-fused protein
# Experimental: Thus, PPO proteins of wild type and variants were expressed as fused to MBP and were used for experiments.
# The following process for purification of PPO protein was performed in a 4° C. cold room. […] The column was washed with 3 column volumes of buffer and the presence of protein in the washing solution was examined. When the protein was no longer detected, the washing procedure was terminated. Then, the MBP-PPO protein was eluted with approximately 2 column volumes of buffer containing 20 mM maltose. The protein concentration of each eluent was determined and the elution was stopped when the protein was no longer detected. Ten microliter of each fraction was investigated for protein quantification and SDS-PAGE analysis. The highly pure fractions of PPO protein variants were used for the enzyme assay.
# Since protoporphyrinogen IX, a substrate of PPO protein, was not commercially available, it was chemically synthesized in the laboratory. Overall process was performed in dark under nitrogen stream. […] of protoporphyrin IX was dissolved in 20 ml of 20% (v/v) EtOH, and stirred under dark condition for 30 minutes. The obtained protoporphyrin IX solution was put into a 15 ml screw tube in an amount of 800 μl, and flushed with nitrogen gas for 5 minutes. To this, 1.5 g of sodium amalgam was added and vigorously shaken for 2 minutes. The lid was opened to exhaust hydrogen gas in the tube. Thereafter, the lid was closed and incubated for 3 minutes. The protoporphyrinogen IX solution was filtered using syringe and cellulose membrane filter. To 600 μl of the obtained protoporphyrinogen IX solution, approximately 300 μl of 2M MOPS [3-(N-morpholino) propanesulfonic acid] was added to adjust pH to 8.0. To determine the enzyme activity of PPO protein, a reaction mixture was prepared with the following composition (based on 10 ml): 50 mM Tris-Cl (pH 8.0); 50 mM NaCl; 0.04% (v/v) Tween 20; 40 mM glucose (0.072 g); 5 units glucose oxidase (16.6 mg); and 10 units catalase (1 μl).
# Hundred and eighty microliters of a reaction mixture […] were placed in 96 well plates and 20 μl of purified PPO proteins were added. After 50 μl of the mineral oil was layered, the reaction was initiated by adding the substrate, protoporphyrinogen IX solution, to a final concentration of 50 μM. The reaction proceeded at room temperature for 30 min and the fluorescence of protoporphyrin IX was measured using Microplate reader (Sense, Hidex) (excitation: 405 nm; emission: 633 nm). To calculate the PPO enzyme activity, the protoporphyrinogen IX solution was kept open in the air overnight to oxidize the solution. To this, 2.7 N HCl was added, and the absorbance at 408 nm was measured. A standard curve was generated using standard protoporphyrin IX, and PPO activity was measured by calibration of protoporphyrin IX using the standard curve of protoporphyrin IX.
# Activities of variants were presented relatively compared to that of wild type.
row,Molecule,Activity (%)
1,B1,78%
2,B2,51%
3,B3,15%
4,B4,21%
5,B5,65%
6,B6,93%
7,B7,8%
8,B8,11%
9,B9,84%
10,B10,89%
11,B11,86%
12,B12,59%
13,B13,85%
14,B14,21%
15,B15,88%
16,B16,16%
17,B17,16%
18,B18,91%
